From paper PMC3229523, “Identification of Lactoferricin B Intracellular Targets Using an Escherichia coli Proteome Chip” (PLoS ONE, 2011)
Ends that are not written are not given here. * marks the point of attachment. Biotin = O=C1N[C@H]2[C@H](CS[C@H]2CCCCC(=O)*)N1

Columns and labels:
Assay in all cases: peptide or protein array; E. coli proteome chip: purified His-tagged proteins printed in duplicate on Fullmoon slides, blocked with 1% BSA; 10 nM N-terminal biotinylated LfcinB with 1% BSA, room temperature, 1 h; detected with DyLight 649-labeled streptavidin, ratio to DyLight 549-labeled anti-His antibody; ProCAT normalisation, local cut-off; triplicate chips
Details in all cases: both partners purified
[1] = target: T1, YjbM (E. coli K-12, UniProt P32694 1-235)
T1 construct: YjbM, E. coli K-12
T1 sequence (looked up): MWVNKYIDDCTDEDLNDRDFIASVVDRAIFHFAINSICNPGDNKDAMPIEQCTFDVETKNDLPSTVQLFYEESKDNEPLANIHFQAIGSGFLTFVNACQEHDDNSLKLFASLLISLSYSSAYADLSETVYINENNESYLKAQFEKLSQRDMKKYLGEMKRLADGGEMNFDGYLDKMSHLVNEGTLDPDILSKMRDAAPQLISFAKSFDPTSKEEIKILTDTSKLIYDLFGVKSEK

[2] = target: T2, YbaQ (E. coli K-12, UniProt P0A9T6 1-113)
T2 construct: YbaQ, E. coli K-12
T2 sequence (looked up): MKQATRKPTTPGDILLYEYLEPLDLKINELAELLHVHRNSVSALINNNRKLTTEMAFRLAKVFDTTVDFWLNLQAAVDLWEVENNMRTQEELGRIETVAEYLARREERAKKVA

[3] = target: T3, AroD (E. coli K-12, UniProt P05194 1-252)
T3 construct: AroD, E. coli K-12
T3 sequence (looked up): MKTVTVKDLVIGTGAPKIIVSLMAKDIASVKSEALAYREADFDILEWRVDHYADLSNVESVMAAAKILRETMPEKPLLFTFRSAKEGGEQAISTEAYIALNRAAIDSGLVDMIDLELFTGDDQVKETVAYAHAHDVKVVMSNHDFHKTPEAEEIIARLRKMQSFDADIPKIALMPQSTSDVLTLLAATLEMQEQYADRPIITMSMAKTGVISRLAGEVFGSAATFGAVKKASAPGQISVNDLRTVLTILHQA

[4] = target: T4, IlvL (E. coli K-12, UniProt P62522 1-32)
T4 construct: IlvL, E. coli K-12
T4 chain (looked up): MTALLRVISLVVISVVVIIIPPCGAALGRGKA

[5] = target: T5, YjiL (E. coli K-12, UniProt P39383 1-255)
T5 construct: YjiL, E. coli K-12
T5 sequence (looked up): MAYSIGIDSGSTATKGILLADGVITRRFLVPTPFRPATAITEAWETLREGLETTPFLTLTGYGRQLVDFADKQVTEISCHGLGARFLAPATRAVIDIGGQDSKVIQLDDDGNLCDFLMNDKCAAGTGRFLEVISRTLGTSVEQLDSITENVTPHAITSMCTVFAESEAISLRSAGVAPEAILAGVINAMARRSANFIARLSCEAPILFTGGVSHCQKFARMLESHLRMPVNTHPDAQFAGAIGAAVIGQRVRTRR

[6] = target: T6, YjgL (E. coli K-12, UniProt P39336 1-604)
T6 construct: YjgL, E. coli K-12
T6 sequence (looked up): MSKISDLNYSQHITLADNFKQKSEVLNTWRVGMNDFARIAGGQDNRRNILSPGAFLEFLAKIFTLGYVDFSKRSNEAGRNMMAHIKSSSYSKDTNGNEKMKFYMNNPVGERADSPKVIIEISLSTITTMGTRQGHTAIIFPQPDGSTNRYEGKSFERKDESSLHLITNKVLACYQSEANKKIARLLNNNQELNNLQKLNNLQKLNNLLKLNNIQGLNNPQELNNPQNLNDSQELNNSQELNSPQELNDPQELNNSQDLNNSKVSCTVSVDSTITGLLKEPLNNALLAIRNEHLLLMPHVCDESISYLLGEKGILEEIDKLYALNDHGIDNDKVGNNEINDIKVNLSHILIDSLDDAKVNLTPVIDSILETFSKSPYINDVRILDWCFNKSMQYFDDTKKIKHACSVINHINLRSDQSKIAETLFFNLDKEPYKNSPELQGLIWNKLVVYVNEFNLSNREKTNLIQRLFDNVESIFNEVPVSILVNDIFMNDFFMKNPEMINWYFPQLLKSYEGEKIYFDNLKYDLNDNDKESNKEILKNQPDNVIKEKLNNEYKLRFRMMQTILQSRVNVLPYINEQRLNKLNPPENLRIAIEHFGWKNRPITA

Measured: binding result

B1: N-terminal biotinylated Lactoferricin B (peptide, UniProt P24627 36-60, looked up)
peptide: Biotin-FKCRRWQWRMKKLGAPSITCVRRAF
modifications: ends and bridges not checked
notes: lactoferricin B (LfcinB), cationic antimicrobial peptide of 25 amino acids; also called biotinylated LfcinB; biotin-labeled LfcinB; source: bought: Kelowna Inc
binds: all assays above
